Measured values taken from US20170260266A1.
Substitutions are numbered along the chain they refer to. “And” between values parts separate entries of the source, which are not always exact repeats. Equal entries are not always repeated.

B1: DOM30h-440-81/86 (protein)
VL: DIQMTQSPSSLSASVGDRVTITCRASRPIRNWLDWYQQKPGKAPKLLIWGASHLQSGVPSRFSGSGSGTDFTLTISSLQPEDFATYYCVQIGEDPVTFGQGTKVEIK
B2: DOM30h-440-57 (protein)
VL: DIQMTQSPSSLSASVGDRVTITCRASRPIRNWLDWYQQKPGKAPELLIWGASHLQSGVPSRFSGSGSGTDFTLTISSLQPEDFATYYCMQIGDDPVTFGQGTKVEIKR
B3: DOM30h-440-65 (protein)
VL: B2 VL with E45K, D93E
B4: DOM30h-440-53 (protein)
VL: B2 VL with E45K, M89L, I91V, D93E
B5: DOM30h-440-54 (protein)
VL: B2 VL with E45K, M89W, I91L, G92A, D93F, V96T
B6: DOM30h-440-55 (protein)
VL: B2 VL with E45K, M89V, D93E
B7: DOM30h-440-58 (protein)
VL: B2 VL with E45K, M89L, G92A
B8: DOM30h-440-60 (protein)
VL: B2 VL with E45K, M89I, I91F, D93E
B9: DOM30h-440-64 (protein)
VL: B2 VL with E45K, M89L, D93E
B10: DOM30h-440-56 (protein)
VL: B2 VL with E45K, I75V, D93E
B11: DOM30h-440-63 (protein)
VL: B2 VL with E45K, D93S

These binders were tested against full length (mature) cynomolgus monkey TSLP, recombinant (cynomolgus monkey) (assay: cell-based or functional assay).
With B1 the Inhibition of TSLP-induced pSTAT5 in SW756 cells, Geometric Mean IC50 (n = 5) was 4 nM.
B2 showed a pSTAT5 assay in SW756 cells, Geometric Mean IC50 of 1.6 nM.
In the case of B3, the pSTAT5 assay in SW756 cells, Geometric Mean IC50 is reported as 3.8 nM.
B4 was tested, and the pSTAT5 assay in SW756 cells, Geometric Mean IC50 was 7.28 nM.
With B5 the pSTAT5 assay in SW756 cells, Geometric Mean IC50 was 2.45 nM.
Work on B6 yielded a pSTAT5 assay in SW756 cells, Geometric Mean IC50 of 3.12 nM.
For B7, the pSTAT5 assay in SW756 cells, Geometric Mean IC50 was 3.43 nM.
B8 gave a pSTAT5 assay in SW756 cells, Geometric Mean IC50 of 11.2 nM.
B9 was tested, and the pSTAT5 assay in SW756 cells, Geometric Mean IC50 was 3.36 nM.
Work on B10 yielded a pSTAT5 assay in SW756 cells, Geometric Mean IC50 of 4.74 nM.
In the case of B11, the pSTAT5 assay in SW756 cells, Geometric Mean IC50 is reported as 2.4 nM.

Each binder was assayed against full length (mature) cynomolgus monkey TSLP, recombinant (cynomolgus monkey) (assay: ELISA RBA, geometric mean).
In the case of B2, the IC50 is reported as 0.36 nM.
B3 gave an IC50 of 0.29 nM.
B4 showed an IC50 of 1.3 nM.
With B5 the IC50 was 0.67 nM.
B6 was tested, and the IC50 was 0.55 nM.
B7 gave an IC50 of 0.21 nM.
For B8, the IC50 was 2.65 nM.
B9 gave an IC50 of 0.87 nM.
With B10 the IC50 was 0.55 nM.
B11 was tested, and the IC50 was 0.83 nM.

These binders were tested against full length (mature) cynomolgus monkey TSLP, recombinant (cynomolgus monkey) (assay: RBA, geometric mean (n = 2)).
B1 showed an IC50 of 2.05 nM.

These binders were tested against full length (mature) cynomolgus monkey TSLP, recombinant (cynomolgus monkey) (assay: SPR, biotinylated TSLP on SA chip (Biacore 4000)).
For B3, the Kd was 3.11 nM.
B4 gave a Kd of 5.79 nM.
In the case of B5, the Kd is reported as 6.24 nM.
Work on B6 yielded a Kd of 1.61 nM.
Work on B7 yielded a Kd of 3.42 nM.
Work on B8 yielded a Kd of 7.81 nM.
Binder B9 has a Kd of 4.29 nM.
With B10 the Kd was 2.97 nM.
B11 gave a Kd of 5.98 nM.

These binders were tested against full length (mature) cynomolgus monkey TSLP, recombinant (cynomolgus monkey) (assay: SPR with biotinylated TSLP; mean of two experiments).
B1 was tested, and the Kd was 0.511 nM and 0.51 nM, the koff was 0.000774 s⁻¹ and the kon was 1.62e+06 M⁻¹ s⁻¹.

The binders below were run against full length (mature) cynomolgus monkey TSLP, recombinant (cynomolgus monkey) (assay: SPR, biotinylated TSLP on SA chip; all concentrations (footnote 2)).
B2 showed a Kd of 4.95 nM.

These binders were tested against full length (mature) cynomolgus monkey TSLP, recombinant (cynomolgus monkey) (assay: SPR, biotinylated TSLP on SA chip; value excluding 1000 nM concentration).
Binder B2 has a Kd of 1.92 nM.

What follows are binders tested against pre-existing human anti-VK (HAVK) antibodies (assay: MSD bridging immunoassay: biotinylated and ruthenylated dAb cross-linked by antibodies in 5% serum of healthy subjects; rate over donors).
In the case of B1, the frequency of sera giving a positive signal (above the assay cutpoint) is reported as 6.7%.
